B1: OR4K15 (parent)
chain: GUUAACGGUCAUAGGCCAUGGAAACUAGGAGCACCAUUUCGCUGCCAGUGAAGAAAUGAACAAAGAAAAUCUGGGCCAGGCAGGCAUCAAAAGAAAUAGUCUUGCGCUCAACCAGAAAGUCUGUAAUCAUUUUAAGGGUA

Variants of: B1
Test: self-cleavage, relative activity (ratio to wild type); higher = more cleavage; in vitro, sequencing; the parent is a self-cleaving ribozyme

Compared with A64G A90G, A64G U87C is lower in self-cleavage: 1.13 for the first, 0.87 for the second.

Going from A67G A95U to A64G A118U, the self-cleavage falls from 1.41 to 0.97.

Compared with A64G A118G, G65U G83U is lower in self-cleavage: 0.89 for the first, 0.44 for the second.

Compared with A67C A117G, A66G G138A is lower in self-cleavage: 2.74 for the first, 1.26 for the second.

Compared with A64G G138A, A66U U131C is lower in self-cleavage: 1.9 for the first, 0.84 for the second.

Going from A66G A91G to A64U A134G, the self-cleavage rises from 1.04 to 1.44.

Going from A64G C109U to A67G A110U, the self-cleavage rises from 0.36 to 1.46.

Going from A66U A94G to A66G U127A, the self-cleavage rises from 1.36 to 2.35.

First: A63C C81U
Second: A64G C105U
The self-cleavage of the first is higher: 0.41 for the first, 0.12 for the second.

Compared with A64U A69G, A64G U102A is lower in self-cleavage: 1.86 for the first, 0.68 for the second.

First: A67C A96U
Second: A66G A116U
The self-cleavage of the first is higher: 2.39 for the first, 0.7 for the second.

First: A64G A66C
Second: A64U A98U
The self-cleavage of the first is lower: 1.17 for the first, 1.98 for the second.

Compared with G65A U132C, G65A U132G is higher in self-cleavage: 0.58 for the first, 0.82 for the second.

First: A62U U72C
Second: A64G A92G
The self-cleavage of the first is lower: 0.19 for the first, 1.48 for the second.

Going from A64G U103A to A67G A114G, the self-cleavage falls from 0.55 to 0.49.

Compared with A67G A114U, A66G A129U is higher in self-cleavage: 0.03 for the first, 1.47 for the second.

Going from A66G A134G to A66G A134C, the self-cleavage rises from 1.66 to 1.71.

First: A64U A82G
Second: A63G U133C
The self-cleavage of the first is lower: 0.71 for the first, 1.18 for the second.

Compared with A64G U120C, A64G U120A is higher in self-cleavage: 1.13 for the first, 2.01 for the second.

Going from A62U U87C to A66G A68G, the self-cleavage falls from 1.57 to 0.62.

First: A66G A68C
Second: A64U U72A
The self-cleavage of the first is higher: 1.13 for the first, 0.05 for the second.

Compared with A66G G104C, A62U C88U is higher in self-cleavage: 0.01 for the first, 2.34 for the second.

Going from A64C A68G to A64G G136U, the self-cleavage rises from 1.44 to 2.02.

Compared with A66U A140G, A63U U87A is lower in self-cleavage: 2.51 for the first, 1.18 for the second.

Going from A63G A86G to A63G A86C, the self-cleavage falls from 1.47 to 1.21.

Going from A63G G84A to A66C U100C, the self-cleavage falls from 1.86 to 1.6.

First: G65U A86G
Second: A66G U102A
The self-cleavage of the first is lower: 0.19 for the first, 0.89 for the second.

Going from A64C U103A to A64C U103C, the self-cleavage rises from 0.14 to 0.24.

Compared with A64G U131C, A66G A135U is lower in self-cleavage: 1.2 for the first, 1.08 for the second.

Going from A64U U132C to A67G A126G, the self-cleavage falls from 1.49 to 1.21.

Compared with A62U A110G, A66G C81G is higher in self-cleavage: 0.14 for the first, 0.18 for the second.

Going from A66U A78G to G65A A118G, the self-cleavage rises from 0.3 to 1.57.

First: A64C G80A
Second: A64G G106U
The self-cleavage of the first is higher: 0.2 for the first, 0.02 for the second.

Going from G65U G138A to A66U U122G, the self-cleavage rises from 1.24 to 2.33.

Going from A64U A111G to A66G U72C, the self-cleavage rises from 0.04 to 0.09.

First: A67G A78U
Second: A63U A90G
The self-cleavage of the first is lower: 0.33 for the first, 1.76 for the second.

Compared with A67G A98U, A64G A86G is lower in self-cleavage: 1.26 for the first, 1.15 for the second.

Going from G65A to G65U, the self-cleavage rises from 1.5 to 2.

Going from A66G A126G to A62U A118U, the self-cleavage falls from 1.07 to 0.82.

Going from A63U U103A to A67G A90U, the self-cleavage rises from 0.49 to 1.13.

First: A67G A90G
Second: A66C U132C
The self-cleavage of the first is lower: 0.96 for the first, 1.6 for the second.

First: A63U U100A
Second: A64G C112U
The self-cleavage of the first is higher: 0.96 for the first, 0.01 for the second.

Compared with A64U A126U, G65A A110C is lower in self-cleavage: 1.2 for the first, 0.19 for the second.

Compared with A63G A114G, A63G A67G is higher in self-cleavage: 0.86 for the first, 1.6 for the second.

Compared with A63G A67U, A66G U132C is lower in self-cleavage: 1.45 for the first, 0.6 for the second.

A63G A111C and A63G A111G are the same in self-cleavage: 0.02 for the first, 0.02 for the second.

Going from A64U A114G to A64U A114U, the self-cleavage falls from 0.46 to 0.02.

First: A67G A86G
Second: A64G A91C
The self-cleavage of the first is lower: 1.22 for the first, 1.76 for the second.

Compared with A63G A125G, A64G A98G is lower in self-cleavage: 0.64 for the first, 0.59 for the second.

Compared with A62U A117G, A62U G75A is lower in self-cleavage: 1.64 for the first, 0.06 for the second.

First: A66C A78G
Second: A66C A95G
The self-cleavage of the first is lower: 0.32 for the first, 1.92 for the second.

Compared with A64U A117U, A64G A69G is higher in self-cleavage: 1.07 for the first, 1.36 for the second.

Compared with A64G A69U, A66U U103C is lower in self-cleavage: 1.58 for the first, 0.48 for the second.

First: A66G A98G
Second: A64G C85U
The self-cleavage of the first is lower: 0.38 for the first, 0.98 for the second.

Going from A64C A69U to A63G A116G, the self-cleavage falls from 2.61 to 1.17.

Going from A64U C113U to A67G A91G, the self-cleavage rises from 0.05 to 1.07.

First: A62U U130C
Second: A64G A126G
The self-cleavage of the first is lower: 0.84 for the first, 1.05 for the second.

Going from A63G A68G to A63G A68C, the self-cleavage rises from 1.41 to 2.21.

Going from G65U A90G to A66U A111G, the self-cleavage falls from 0.96 to 0.01.

First: A63G C128U
Second: A64G A116U
The self-cleavage of the first is higher: 1.95 for the first, 0.19 for the second.

Going from A63U U131C to A63U U131A, the self-cleavage rises from 1.33 to 2.65.

First: A66G A90U
Second: A66G A90C
The self-cleavage of the first is higher: 1.31 for the first, 0.17 for the second.

Compared with A63G C105U, A63G A66G is higher in self-cleavage: 0.05 for the first, 1.7 for the second.

Going from A63G A66C to A66U A126G, the self-cleavage rises from 0.27 to 1.05.

First: A66G U87A
Second: A66G U87C
The self-cleavage of the first is higher: 1.15 for the first, 0.77 for the second.

Compared with A64G A135G, A66G C105A is lower in self-cleavage: 1.7 for the first, 0.05 for the second.

Compared with A64U U70C, A63G U100C is higher in self-cleavage: 1.06 for the first, 2.31 for the second.

First: A62U G83A
Second: G65A U108G
The self-cleavage of the first is higher: 1.98 for the first, 0.01 for the second.

First: A66C U127C
Second: A64G U100A
The self-cleavage of the first is lower: 0.14 for the first, 0.51 for the second.

Going from A64G U100C to A64G G84C, the self-cleavage falls from 1.22 to 0.31.

First: A64U A67G
Second: G65A A126G
The self-cleavage of the first is higher: 1.32 for the first, 1.12 for the second.

Compared with G65A A126U, A63U A91U is higher in self-cleavage: 0.76 for the first, 1.05 for the second.

Compared with A64U U120G, A64C U70C is lower in self-cleavage: 1.63 for the first, 1.18 for the second.

Compared with G65A A68G, A67C A110G is lower in self-cleavage: 1.57 for the first, 0.37 for the second.

Going from A66G A111G to A64G A117G, the self-cleavage rises from 0.02 to 1.7.

Going from A66G U130A to A66U U108C, the self-cleavage falls from 0.6 to 0.02.

Going from A67G A69C to A67G A69U, the self-cleavage falls from 1.68 to 1.32.

Going from A67C A125G to A64G A78U, the self-cleavage falls from 0.85 to 0.4.

Going from A66U A89C to A66U A89G, the self-cleavage rises from 0.99 to 1.7.

First: A66U U120G
Second: A63U A86C
The self-cleavage of the first is lower: 1.14 for the first, 1.78 for the second.

Going from A66U C113A to A64U U131C, the self-cleavage rises from 0 to 1.58.

Compared with A64U U130C, A66G U131A is higher in self-cleavage: 1.12 for the first, 1.7 for the second.

Compared with A63U U108C, G65A A116G is higher in self-cleavage: 0.01 for the first, 0.45 for the second.

A66G A110U showed a self-cleavage of 0.78.

From the RNAGym collection of RNA variant scans (doi:10.7554/elife.90254)
